Patent US7314621B2, “Cytidine deaminase” (Kyoto University, priority 1999, dated 2008)

Experiments:
[1] = system: AU-rich RNA (5-AU); test: Gel retardation assay, avidity to AU-rich RNA; type: binding
From the text: Since the AID protein has a functional cytidine deaminase activity as well as a structural similarity to APOBEC-1, to examine RNA editing activity in the AID protein, avidity to AU-rich RNA (5-AU) and apoB RNA (which are RNA substrates for APOBEC-1) was examined.

[2] = Cytidine deaminase activity of the AID protein ([3H]deoxycytidine to deoxyuridine, TLC); type: biochemical; settings: AID-GST fusion protein 2 to 600 ng, pH 7.5, 2 to 4 hours
Description: A cytidine deaminase activity of AID was measured by the same method as in the previous report (J Biol. Chem. 270:14768-14775, 1995).
The purified AID-GST fusion protein prepared in the above (2, 4, 6, 8, 10, 20, 40, 60, 100, 200, 300, 400, and 600 ng) was incubated in the buffer (pH 7.5, the total amount 10 μl) containing 45 mM Tris with 3.3 μCi [^3H] deoxycytidine (24.8 Ci/mmol, DuPont) and 250 μM cytidine for 2 to 4 hours. The reaction was terminated by adding deoxycytidine (2 μl of 10 μg/ml) and deoxyuridine (2 μl of 10 μg/ml). Insoluble substances were removed by centrifugation, and the reaction mixture (4 μl) was subjected to the polyethylene imine-cellulose thin layer chromatography plate (VWR). The plate was developed in isopropyl alcohol/10% HCl (7:2 v/v). The plate was exposed to ultraviolet light (254 nm) for visualization and bands corresponding to deoxycytidine and deoxyuridine were collected, and added to Ultima Gold scintillation solution to be quantified by liquid scintillation photometer (Packard)

B1: AID protein: activation-induced cytidine deaminase, novel mouse protein (SEQ ID NO:2), tested as purified GST fusion protein (protein)
chain: MDSLLMKQKKFLYHFKNVRWAKGRHETYLCYVVKRRDSATSCSLDFGHLRNKSGCHVELLFLRYISDWDLDPGRCYRVTWFTSWSPCYDCARHVAEFLRWNPNLSLRIFTARLYFCEDRKAEPEGLRRLHRAGVQIGIMTFKDYFYCWNTFVENRERTFKAWEGLHENSVRLTRQLRRILLPLYEVDDLRDAFRMLGF
modifications: left off: a dimerising Fc or GST
[1]
  avidity to AU-rich RNA (5-AU): did not show avidity
[2]
  cytidine deaminase activity: concentration-dependent cytidine deaminase activity
